Assay results taken from publication PMC9886983, “Mechanism of regulation of the Helicobacter pylori Cagβ ATPase by CagZ” (Nature Communications, 2023).
Changes are numbered by the printed parent chain. In names and notes the source's numbering stands.

Legend:
[1] = target: Cagβ-AAD1 R375A (Helicobacter pylori 26695); assay: ITC; ITC-200 at 25 °C; 20 mM Tris pH 8.0, 150 mM NaCl; Cagβ proteins (20 µM) in the cell, CagZ proteins or peptides (200 µM) in the syringe
[2] = target: Cagβ-AAD1 Y374F (Helicobacter pylori 26695); assay: as above
[3] = target: Cagβ-AAD1 D309A (Helicobacter pylori 26695); assay: as above
[4] = target: Cagβ-AAD1 N449A (Helicobacter pylori 26695); assay: as above
[5] = target: Cagβ-AAD1 E396A (Helicobacter pylori 26695); assay: as above
[6] = target: Cagβ-AAD1 K388A (Helicobacter pylori 26695); assay: as above
[7] = target: Cagβ-AAD1 N452A (Helicobacter pylori 26695); assay: as above
[8] = target: Cagβ-AAD1 N361A (Helicobacter pylori 26695); assay: as above
[9] = target: Cagβ-AAD1 (all-alpha domain of Cagβ, residues 289–488) (Helicobacter pylori 26695) (UniProt O25260); assay: as above
[10] = target: Cagβ-AAD1 F358A (Helicobacter pylori 26695); assay: as above
[11] = target: Cagβ-AAD1 E314A (Helicobacter pylori 26695); assay: as above
[12] = target: Cagβ-AAD1 N365A (Helicobacter pylori 26695); assay: as above
[13] = target: Cagβ-AAD1 D356A (Helicobacter pylori 26695); assay: as above
[14] = target: Cagβ-AAD1 E462A (Helicobacter pylori 26695); assay: as above
[15] = target: Cagβ-AAD1 E350A (Helicobacter pylori 26695); assay: as above
[16] = target: Cagβ-AAD1 S453A (Helicobacter pylori 26695); assay: as above
[17] = target: Cagβ-AAD1 T338A (Helicobacter pylori 26695); assay: as above
[18] = target: Cagβ-AAD1 D335A (Helicobacter pylori 26695); assay: as above
[19] = target: Cagβ1 (soluble region of Cagβ, residues 166–748) (Helicobacter pylori 26695) (UniProt O25260); assay: mass photometry; Cagβ1/CagZ complex (co-expressed, co-purified) at 0.06 µM; OneMP instrument (Refeyn)
[20] = target: T1, Cagβ-AAD1 (all-alpha domain of Cagβ, residues 289–488) (Helicobacter pylori 26695, UniProt O25260 289-488); assay: ITC; ITC-200 at 25 °C; 20 mM Tris pH 8.0, 150 mM NaCl; Cagβ proteins (20 µM) in the cell, CagZ proteins or peptides (200 µM) in the syringe; conditions: both partners purified
T1 construct: Cagβ (HP0524, Cag5) of H. pylori 26695, residues 289-488, holding the all-alpha domain (AAD); source: E. coli BL21 star (DE3), purified (Ni-NTA, TEV cleavage, second Ni-NTA, SEC); not shown: His6, N-terminal, cleaved; TrxA, N-terminal, cleaved
T1 sequence: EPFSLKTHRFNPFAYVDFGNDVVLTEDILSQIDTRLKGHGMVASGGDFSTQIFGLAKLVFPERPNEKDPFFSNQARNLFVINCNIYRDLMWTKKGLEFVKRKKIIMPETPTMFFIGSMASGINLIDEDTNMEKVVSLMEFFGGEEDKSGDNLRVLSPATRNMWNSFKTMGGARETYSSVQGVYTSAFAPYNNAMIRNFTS

[21] = target: T2, Cagβ-AAD1 (residues 289-488), wild type (Helicobacter pylori 26695, UniProt O25260 289-488); assay: ITC; ITC-200, 25 °C, 20 mM Tris pH 8.0, 150 mM NaCl; Cagβ proteins (20 µM) in the cell, CagZ proteins (200 µM) in the syringe; conditions: both partners purified
T2 construct: Cagβ (HP0524, Cag5) of Helicobacter pylori 26695, residues 289-488, holds the all-alpha domain (AAD); also called Cagβ-AAD1_WT; Cagβ-AAD1 (289-488); source: E. coli BL21 star (DE3), purified (Ni-NTA, TEV, second Ni-NTA, SEC); not shown: His6, N-terminal, cleaved; TrxA, N-terminal, cleaved
T2 sequence: T1 sequence

[22] = target: T3, CagZ (residues 2-199), wild type (Helicobacter pylori 26695, UniProt B5Z6P9 2-199); assay: as above; conditions: both partners purified
T3 construct: CagZ of Helicobacter pylori 26695, residues 2-199; also called CagZ-WT; source: E. coli BL21 star (DE3), purified (Ni-NTA, TEV, second Ni-NTA, SEC); not shown: His6, N-terminal, cleaved; TrxA, N-terminal, cleaved
T3 sequence: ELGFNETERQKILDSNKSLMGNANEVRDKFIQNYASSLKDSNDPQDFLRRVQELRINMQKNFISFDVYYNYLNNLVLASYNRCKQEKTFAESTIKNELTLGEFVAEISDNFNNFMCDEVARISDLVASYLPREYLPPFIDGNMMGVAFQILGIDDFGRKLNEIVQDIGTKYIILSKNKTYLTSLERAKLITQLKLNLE

Molecule: CagZ (residues 2–199), expressed separately from pET-32a (from UniProt O25261 2-199) (natural protein)
- Kd [1]: 1460 nM
- Kd [2]: 20 nM
- Kd [3]: 70 nM
- Kd [4]: 20 nM
- Kd [5]: 40 nM
- Kd [6]: 40 nM

Molecule: CagZ D125A (natural protein)
- Kd [7]: 60 nM

Molecule: CagZ D155A (natural protein)
- Kd [8]: 60 nM

Molecule: CagZ E199A (natural protein)
- Kd [9]: 40 nM

Molecule: CagZ F149A (natural protein)
- Kd [10]: 410 nM

Molecule: CagZ K85A (natural protein)
- Kd [11]: 80 nM

Molecule: CagZ N162A (natural protein)
- Kd [12]: 40 nM

Molecule: CagZ N178A (natural protein)
- Kd [1]: 8770 nM
- Kd [9]: 150 nM

Molecule: CagZ N178A/Y181A (natural protein)
- Kd [9]: 1500 nM

Molecule: CagZ Q150A (natural protein)
- Kd [13]: 50 nM

Molecule: CagZ R133A (natural protein)
- Kd [14]: 20 nM

Molecule: CagZ R159A (natural protein)
- Kd [15]: 40 nM

Molecule: CagZ R187A (natural protein)
- Kd [9]: 16900 nM

Molecule: CagZ S124A (natural protein)
- Kd [16]: 20 nM

Molecule: CagZ S184A (natural protein)
- Kd [9]: 70 nM

Molecule: CagZ T170A (natural protein)
- Kd [17]: 90 nM
- Kd [18]: 90 nM

Molecule: CagZ Y81F (natural protein)
- Kd [11]: 90 nM

Molecule: CagZ Y181A (natural protein)
- Kd [1]: 35700 nM
- Kd [9]: 560 nM

Molecule: CagZ co-expressed with Cagβ1 from pET-28a (natural protein)
- percent of the protein in the 1:1 complex [19]: 88%
- stoichiometry N [19]: 1

B1: CagZ-20 (peptide of the CagZ C-terminal tail, residues 176–195) (peptide)
peptide: SKNKTYLTSLERAKLITQLK
notes: CagZ of H. pylori, C-terminal tail, residues 176-195; source: synthetic peptide (Genscript)
- Kd [20]: 42000 nM

B2: CagZ (residues 2-199) E199A (natural protein)
chain: T3 sequence with E198A
notes: CagZ of Helicobacter pylori 26695, residues 2-199, with E199A; source: E. coli BL21 star (DE3), purified as the wild type but without TEV protease treatment; not shown: His6, N-terminal, kept; TrxA, N-terminal, kept
- Kd [21]: ~50 nM

B3: CagZ (residues 2–199), expressed separately from pET-32a (natural protein)
chain: T3 sequence with T7A, K17S
notes: CagZ of H. pylori 26695, residues 2-199; also called WT; full-length CagZ; source: E. coli BL21 star (DE3), purified (Ni-NTA, TEV cleavage, second Ni-NTA, SEC); not shown: His6, N-terminal, cleaved; TrxA, N-terminal, cleaved
- Kd [20]: 90 nM

B4: Cagβ-AAD3 (residues 299-488) (domain or fragment)
chain: NPFAYVDFGNDVVLTEDILSQIDTRLKGHGMVASGGDFSTQIFGLAKLVFPERPNEKDPFFSNQARNLFVINCNIYRDLMWTKKGLEFVKRKKIIMPETPTMFFIGSMASGINLIDEDTNMEKVVSLMEFFGGEEDKSGDNLRVLSPATRNMWNSFKTMGGARETYSSVQGVYTSAFAPYNNAMIRNFTS
notes: Cagβ (HP0524, Cag5) of Helicobacter pylori 26695, residues 299-488, holds the all-alpha domain (AAD); also called Cagβ-AAD3 (299-488); source: E. coli BL21 star (DE3), purified (Ni-NTA, TEV, second Ni-NTA, SEC); not shown: His6, N-terminal, cleaved; TrxA, N-terminal, cleaved
- Kd [22]: 190 nM

B5: CagZ-24 (peptide of the CagZ C-terminal tail, residues 176–199) (peptide)
peptide: SKNKTYLTSLERAKLITQLKLNLE
notes: CagZ of H. pylori, C-terminal tail, residues 176-199; source: synthetic peptide (Genscript)
- Kd [20]: 330 nM
